Laboratory results published in publication PMC5766498 (Nature Communications, 2018).

B1: untagged RNF168 UDM2ΔC (residues 419-462) (domain or fragment, human, UniProt Q8IYW5 419-462, looked up)
chain: EETEINFTQKLIDLEHLLFERHKQEEQDRLLALQLQKEVDKEQM
notes: RNF168, human, residues 419-462 (UDM2ΔC); also called UDM2ΔC (untagged); UAD–MIU2; source: E. coli Rosetta (DE3), purified (Glutathione Sepharose, HRV3C cleavage, ResourceQ, Superdex75)
B2: untagged RNF168 LRM1-UMI (residues 110-166) (domain or fragment, human, UniProt Q8IYW5 110-166, looked up)
chain: LSKPGELRREYEEEISKVAAERRASEEEENKASEEYIQRLLAEEEEEEKRQAEKRRR
notes: Printed as untagged; also called LRM1–UMI (untagged); source: E. coli Rosetta (DE3), purified
B3: GST-tagged RNF168 LRM1 (L116A)-UMI (domain or fragment, human, UniProt Q8IYW5 110-166, looked up)
chain: LSKPGEARREYEEEISKVAAERRASEEEENKASEEYIQRLLAEEEEEEKRQAEKRRR
notes: source: E. coli Rosetta (DE3), purified (Glutathione Sepharose)
B4: GST-tagged RNF168 LRM1 (Y120A)-UMI (domain or fragment, human, UniProt Q8IYW5 110-166, looked up)
chain: LSKPGELRREAEEEISKVAAERRASEEEENKASEEYIQRLLAEEEEEEKRQAEKRRR
notes: as for B3
B5: GST-tagged RNF168 LRM1-UMI (S142A) (domain or fragment, human, UniProt Q8IYW5 110-166, looked up)
chain: LSKPGELRREYEEEISKVAAERRASEEEENKAAEEYIQRLLAEEEEEEKRQAEKRRR
notes: as for B3
B6: GST-tagged RNF168 LRM1-UMI (L149A) (domain or fragment, human, UniProt Q8IYW5 110-166, looked up)
chain: LSKPGELRREYEEEISKVAAERRASEEEENKASEEYIQRALAEEEEEEKRQAEKRRR
notes: as for B3
B7: GST-tagged RNF168 UMI (residues 134-166) (domain or fragment, human, UniProt Q8IYW5 134-166, looked up)
chain: SEEEENKASEEYIQRLLAEEEEEEKRQAEKRRR
notes: Cloned into pCold-GST; source: E. coli Rosetta (DE3), purified (Glutathione Sepharose)
B8: GST-tagged RNF168 MIU1 (residues 161-194) (domain or fragment, human, UniProt Q8IYW5 161-194, looked up)
chain: AEKRRRAMEEQLKSDEELARKLSIDINNFCEGSI
notes: RNF168, human, residues 161-194 (MIU1 alone); This construct is not in the methods' list of constructs; its limits stand in the results only; also called MIU1 alone; source: E. coli Rosetta (DE3), purified (Glutathione Sepharose)
B9: GST-tagged RNF168 MIU2 (residues 436-462) (domain or fragment, human, UniProt Q8IYW5 436-462, looked up)
chain: LFERHKQEEQDRLLALQLQKEVDKEQM
notes: RNF168, human, residues 436-462 (MIU2); source: E. coli Rosetta (DE3), purified (Glutathione Sepharose)
B10: GST-tagged RNF168 UDM2 (residues 419-487) (domain or fragment, human, UniProt Q8IYW5 419-487, looked up)
chain: EETEINFTQKLIDLEHLLFERHKQEEQDRLLALQLQKEVDKEQMVPNRQKGSPDEYHLRATSSPPDKVL
notes: RNF168, human, residues 419-487 (UDM2); source: E. coli Rosetta (DE3), purified (Glutathione Sepharose)
B11: GST-tagged RNF168 UDM2ΔC (residues 419-462) (domain or fragment, human, UniProt Q8IYW5 419-462, looked up)
chain: EETEINFTQKLIDLEHLLFERHKQEEQDRLLALQLQKEVDKEQM
notes: RNF168, human, residues 419-462 (UDM2ΔC); also called UAD–MIU2; source: E. coli Rosetta (DE3), purified (Glutathione Sepharose)
B12: GST-tagged RNF168 UDM2ΔC (E433R) (domain or fragment, human, UniProt Q8IYW5 419-462, looked up)
chain: EETEINFTQKLIDLRHLLFERHKQEEQDRLLALQLQKEVDKEQM
notes: RNF168, human, residues 419-462 (UDM2ΔC) with E433R; source: E. coli Rosetta (DE3), purified (Glutathione Sepharose)
B13: GST-tagged RNF168 UDM2ΔC (L436T) (domain or fragment, human, UniProt Q8IYW5 419-462, looked up)
chain: EETEINFTQKLIDLEHLTFERHKQEEQDRLLALQLQKEVDKEQM
notes: RNF168, human, residues 419-462 (UDM2ΔC) with L436T; source: E. coli Rosetta (DE3), purified (Glutathione Sepharose)
B14: GST-tagged RNF168 UDM2ΔC (R439A) (domain or fragment, human, UniProt Q8IYW5 419-462, looked up)
chain: EETEINFTQKLIDLEHLLFEAHKQEEQDRLLALQLQKEVDKEQM
notes: RNF168, human, residues 419-462 (UDM2ΔC) with R439A; source: E. coli Rosetta (DE3), purified (Glutathione Sepharose)
B15: GST-tagged RNF168 LRM1-UMI (residues 110-166) (domain or fragment, human, UniProt Q8IYW5 110-166, looked up)
chain: LSKPGELRREYEEEISKVAAERRASEEEENKASEEYIQRLLAEEEEEEKRQAEKRRR
notes: Cloned into pCold-GST; also called N-terminal part of UDM1; source: E. coli Rosetta (DE3), purified (Glutathione Sepharose)
B16: His6-fused RNF168 UMI-MIU1 (residues 134-188) (domain or fragment, human, UniProt Q8IYW5 134-188, looked up)
chain: SEEEENKASEEYIQRLLAEEEEEEKRQAEKRRRAMEEQLKSDEELARKLSIDINN
notes: source: E. coli, purified (Ni-NTA, then as UDM2ΔC)

The binders below were run against T1, Met1-linked diUb (M1-Ub2) (human, UniProt P0CG47 1-76; P0CG47 1-76) (assay: SPR; untagged LRM1-UMI or UDM2ΔC covalently immobilised on CM5 by amine coupling (10 mM sodium acetate pH 4.0 or 4.5); Ub2 species injected; HBS-P, 25 °C; steady-state fit, 1:1 model). Details: both partners purified.
T1 construct: ubiquitin, human, first (distal) moiety of the linear diUb; ubiquitin, human, second (proximal) moiety, its Met1 joined to Gly76 of the first; Expressed from a human M1-Ub2 gene as one chain; source: E. coli Rosetta (DE3), pET26b, purified (heat step, ResourceS, Superdex75)

B1 and B2 are within 1.5-fold of each other in Kd: 145 µM for the first, 200 µM for the second.

What follows are binders tested against T1, Met1-linked diUb (M1-Ub2) (assay: SPR; GST-fused RNF168 domains captured by immobilised anti-GST antibody on CM5 chip (1000-1500 RU); Ub2 species injected 60 s at 10 µL per min; HBS-P (10 mM HEPES-Na pH 7.4, 150 mM NaCl, 0.05% P20), 25 °C; steady-state fit, 1:1 model). Details: both partners purified.

B3 and B4 are within 1.5-fold of each other in Kd: 206 µM for the first, 236 µM for the second.

B5 and B6 are within 1.5-fold of each other in Kd: 965 µM for the first, 1150 µM for the second.

B7 and B8 are within 1.5-fold of each other in Kd: 306 µM for the first, 233 µM for the second.

B9 and B10 are within 1.5-fold of each other in Kd: 235 µM for the first, 238 µM for the second.

B11 and B12 are within 1.5-fold of each other in Kd: 221 µM for the first, 214 µM for the second.

Going from B13 to B14, the Kd rises from 160 µM to 495 µM (3.1-fold). The first binds more tightly here.

With B15 the Kd was 231 µM.

These binders were tested against T1, Met1-linked diUb (M1-Ub2) (assay: pull-down; 100 µg His6-fused RNF168 on Ni-NTA beads, 15 µg Ub2 species, 25 mM Tris-HCl pH 8.0, 20 mM imidazole, 0.1% Triton X-100, 100 mM NaCl, on ice 2 h; SDS-PAGE, Coomassie (Supplementary Fig. 1a)). Details: both partners purified.

B16: binds.
